Laboratory results taken from article PMC2693498, “The triple combination of tenofovir, emtricitabine and efavirenz shows synergistic anti-HIV-1 activity in vitro: a mechanism of action study”.

What was measured:
[1] = molecular target: T1, HIV-1 reverse transcriptase p66/p51, wild-type (HIV-1, UniProt P04585;P04585 588-1147;588-1027); experiment: EMSA; EFV titrated (ligand Kd); Bmax 5.53%; DEC binding buffer not in the material; 6% non-denaturing PAGE; DEC defined as resistant to excess competitor template; primer/template annealed 1:1.3 in 50 mM; conditions: protein: recombinant; tags: N-terminal 6-His; copies: 1;1; label: 5'-32P primer; template overhangs: 5' 8 nt, 3' 8 nt
[2] = molecular target: T1, HIV-1 reverse transcriptase p66/p51, …; experiment: EMSA; EFV titrated (ligand Kd); Bmax 14.9%; DEC binding buffer not in the material; 6% non-denaturing PAGE; DEC defined as resistant to excess competitor template; primer/template annealed 1:1.3 in 50 mM; conditions: protein: recombinant; tags: N-terminal 6-His; copies: 1;1; label: 5'-32P primer; template overhangs: 5' 8 nt, 3' 8 nt
[3] = molecular target: T1, HIV-1 reverse transcriptase p66/p51, …; experiment: EMSA; dATP titrated (ligand Kd); Bmax 38.0%; DEC binding buffer not in the material; 6% non-denaturing PAGE; DEC defined as resistant to excess competitor template; primer/template annealed 1:1.3 in 50 mM; conditions: protein: recombinant; tags: N-terminal 6-His; copies: 1;1; label: 5'-32P primer; template overhangs: 5' 8 nt, 3' 8 nt
[4] = molecular target: T1, HIV-1 reverse transcriptase p66/p51, …; experiment: EMSA; TFV-DP titrated (ligand Kd); Bmax 15.3%; DEC binding buffer not in the material; 6% non-denaturing PAGE; DEC defined as resistant to excess competitor template; primer/template annealed 1:1.3 in 50 mM; conditions: protein: recombinant; tags: N-terminal 6-His; copies: 1;1; label: 5'-32P primer; template overhangs: 5' 8 nt, 3' 8 nt
[5] = molecular target: T1, HIV-1 reverse transcriptase p66/p51, …; experiment: EMSA; EFV titrated (ligand Kd); Bmax 11.2%; DEC binding buffer not in the material; 6% non-denaturing PAGE; DEC defined as resistant to excess competitor template; primer/template annealed 1:1.3 in 50 mM; conditions: protein: recombinant; tags: N-terminal 6-His; copies: 1;1; label: 5'-32P primer; template 5' overhang 24 nt, other end blunt
[6] = molecular target: T1, HIV-1 reverse transcriptase p66/p51, …; experiment: EMSA; dCTP titrated (ligand Kd); Bmax 55.8%; DEC binding buffer not in the material; 6% non-denaturing PAGE; DEC defined as resistant to excess competitor template; primer/template annealed 1:1.3 in 50 mM; conditions: protein: recombinant; tags: N-terminal 6-His; copies: 1;1; label: 5'-32P primer; template 5' overhang 24 nt, other end blunt
[7] = molecular target: T1, HIV-1 reverse transcriptase p66/p51, …; experiment: EMSA; FTC-TP titrated (ligand Kd); Bmax 60.2%; DEC binding buffer not in the material; 6% non-denaturing PAGE; DEC defined as resistant to excess competitor template; primer/template annealed 1:1.3 in 50 mM; conditions: protein: recombinant; tags: N-terminal 6-His; copies: 1;1; label: 5'-32P primer; template 5' overhang 24 nt, other end blunt
[8] = molecular target: T1, HIV-1 reverse transcriptase p66/p51, …; experiment: EMSA; dATP titrated (ligand Kd); Bmax 60%; DEC binding buffer not in the material; 6% non-denaturing PAGE; DEC defined as resistant to excess competitor template; primer/template annealed 1:1.3 in 50 mM; conditions: protein: recombinant; tags: N-terminal 6-His; copies: 1;1; label: 5'-32P primer; template 5' overhang 23 nt, other end blunt
[9] = molecular target: T1, HIV-1 reverse transcriptase p66/p51, …; experiment: EMSA; EFV titrated (ligand Kd); Bmax 10.6%; DEC binding buffer not in the material; 6% non-denaturing PAGE; DEC defined as resistant to excess competitor template; primer/template annealed 1:1.3 in 50 mM; conditions: protein: recombinant; tags: N-terminal 6-His; copies: 1;1; label: 5'-32P primer; template 5' overhang 23 nt, other end blunt
[10] = molecular target: T1, HIV-1 reverse transcriptase p66/p51, …; experiment: EMSA; TFV-DP titrated (ligand Kd); Bmax 55%; DEC binding buffer not in the material; 6% non-denaturing PAGE; DEC defined as resistant to excess competitor template; primer/template annealed 1:1.3 in 50 mM; conditions: protein: recombinant; tags: N-terminal 6-His; copies: 1;1; label: 5'-32P primer; template 5' overhang 23 nt, other end blunt
[11] = molecular target: T1, HIV-1 reverse transcriptase p66/p51, …; experiment: EMSA; EFV titrated (ligand Kd); Bmax 44.4%; DEC binding buffer not in the material; 6% non-denaturing PAGE; DEC defined as resistant to excess competitor template; primer/template annealed 1:1.3 in 50 mM; conditions: protein: recombinant; tags: N-terminal 6-His; copies: 1;1; label: 5'-32P primer; template 5' overhang 24 nt, other end blunt
[12] = molecular target: T1, HIV-1 reverse transcriptase p66/p51, …; experiment: EMSA; dCTP titrated (ligand Kd); Bmax 50.0%; DEC binding buffer not in the material; 6% non-denaturing PAGE; DEC defined as resistant to excess competitor template; primer/template annealed 1:1.3 in 50 mM; conditions: protein: recombinant; tags: N-terminal 6-His; copies: 1;1; label: 5'-32P primer; template 5' overhang 24 nt, other end blunt
[13] = molecular target: T1, HIV-1 reverse transcriptase p66/p51, …; experiment: EMSA; FTC-TP titrated (ligand Kd); Bmax 50.0%; DEC binding buffer not in the material; 6% non-denaturing PAGE; DEC defined as resistant to excess competitor template; primer/template annealed 1:1.3 in 50 mM; conditions: protein: recombinant; tags: N-terminal 6-His; copies: 1;1; label: 5'-32P primer; template 5' overhang 24 nt, other end blunt
[14] = molecular target: T1, HIV-1 reverse transcriptase p66/p51, …; experiment: EMSA; EFV titrated (ligand Kd); Bmax 3.96%; DEC binding buffer not in the material; 6% non-denaturing PAGE; DEC defined as resistant to excess competitor template; primer/template annealed 1:1.3 in 50 mM; conditions: protein: recombinant; tags: N-terminal 6-His; copies: 1;1; label: 5'-32P primer; template 5' overhang 23 nt, other end blunt

B1: D20/D36C, FTC-MP-terminated (dsDNA)
DNA 1: GTCCCTGTTCGGGCGCCACC
DNA 2: TCTCTAATGGTGGCGCCCGAACAGGGACCTGAAAGC
modifications: 3'-terminal C of primer is emtricitabine-MP
apparent K (half saturation) [1]: 1540 ± 330 nM

B2: D20/D36C, ddCMP-terminated (dsDNA)
DNA 1: GTCCCTGTTCGGGCGCCACC
DNA 2: TCTCTAATGGTGGCGCCCGAACAGGGACCTGAAAGC
modifications: 3'-terminal C of primer is ddCMP
apparent K (half saturation) [2]: 1030 ± 250 nM
apparent K (half saturation) [3]: 16.9 ± 8.5 µM
apparent K (half saturation) [4]: 445 ± 114 µM

B3: D26/D50, ddAMP-terminated (dsDNA)
DNA 1: CTGAGACAACATCTGCTGAGGTAGGA
DNA 2: TGTCGTGTGGTGTCGTGTGGTATGTCCTACCTCAGCAGATGTTGTCTCAG
modifications: 3'-terminal A of primer is ddAMP
apparent K (half saturation) [5]: 2420 ± 1100 nM
apparent K (half saturation) [6]: 8.1 ± 2.1 µM
apparent K (half saturation) [7]: 86.8 ± 0.2 µM

B4: D27/D50, ddCMP-terminated (dsDNA)
DNA 1: CTGAGACAACATCTGCTGAGGTAGGAC
DNA 2: TGTCGTGTGGTGTCGTGTGGTATGTCCTACCTCAGCAGATGTTGTCTCAG
modifications: 3'-terminal C of primer is ddCMP
apparent K (half saturation) [8]: 6.5 ± 2.6 µM
apparent K (half saturation) [9]: 110 ± 60 nM
apparent K (half saturation) [10]: 140 ± 19 µM

B5: D26/D50, TFV-terminated (dsDNA)
DNA 1: CTGAGACAACATCTGCTGAGGTAGGA
DNA 2: TGTCGTGTGGTGTCGTGTGGTATGTCCTACCTCAGCAGATGTTGTCTCAG
modifications: 3'-terminal A of primer is tenofovir (chain terminator)
apparent K (half saturation) [11]: 1220 ± 280 nM
apparent K (half saturation) [12]: 179 ± 33 µM
apparent K (half saturation) [13]: 46.5 ± 7.8 µM

B6: D27/D50, FTC-MP-terminated (dsDNA)
DNA 1: CTGAGACAACATCTGCTGAGGTAGGAC
DNA 2: TGTCGTGTGGTGTCGTGTGGTATGTCCTACCTCAGCAGATGTTGTCTCAG
modifications: 3'-terminal C of primer is emtricitabine-MP
apparent K (half saturation) [14]: 1260 ± 240 nM
